How the values were obtained:
Nme1Cas9 [1] = molecular target: T1, Nme1Cas9 (Neisseria meningitidis, UniProt C9X1G5 1-1082); assay: filter binding; no AcrIIC2Nme; 5 mM MgCl2; Filter binding: 20 mM Tris pH 7.5, 100 mM KCl, 5 mM MgCl2, 1 mM DTT, 5% glycerol, 0.01% Igepal, 10 ug/mL yeast tRNA, 10 ug/mL BSA, 37 C, 30 min; ITC: 300 mM NaCl, 20 mM Tris pH 7.5, 20 C; gel filtration: 300 mM NaCl, 20 mM Tris pH 7.5; pull-down: 50 mM Tris pH 7.5, 200 mM NaCl, 5% glycerol, 20 mM imidazole; settings: protein: recombinant; label: radiolabeled; sgRNA with repeat:anti-repeat hairpin and stem loops 1 and 2
T1 sequence: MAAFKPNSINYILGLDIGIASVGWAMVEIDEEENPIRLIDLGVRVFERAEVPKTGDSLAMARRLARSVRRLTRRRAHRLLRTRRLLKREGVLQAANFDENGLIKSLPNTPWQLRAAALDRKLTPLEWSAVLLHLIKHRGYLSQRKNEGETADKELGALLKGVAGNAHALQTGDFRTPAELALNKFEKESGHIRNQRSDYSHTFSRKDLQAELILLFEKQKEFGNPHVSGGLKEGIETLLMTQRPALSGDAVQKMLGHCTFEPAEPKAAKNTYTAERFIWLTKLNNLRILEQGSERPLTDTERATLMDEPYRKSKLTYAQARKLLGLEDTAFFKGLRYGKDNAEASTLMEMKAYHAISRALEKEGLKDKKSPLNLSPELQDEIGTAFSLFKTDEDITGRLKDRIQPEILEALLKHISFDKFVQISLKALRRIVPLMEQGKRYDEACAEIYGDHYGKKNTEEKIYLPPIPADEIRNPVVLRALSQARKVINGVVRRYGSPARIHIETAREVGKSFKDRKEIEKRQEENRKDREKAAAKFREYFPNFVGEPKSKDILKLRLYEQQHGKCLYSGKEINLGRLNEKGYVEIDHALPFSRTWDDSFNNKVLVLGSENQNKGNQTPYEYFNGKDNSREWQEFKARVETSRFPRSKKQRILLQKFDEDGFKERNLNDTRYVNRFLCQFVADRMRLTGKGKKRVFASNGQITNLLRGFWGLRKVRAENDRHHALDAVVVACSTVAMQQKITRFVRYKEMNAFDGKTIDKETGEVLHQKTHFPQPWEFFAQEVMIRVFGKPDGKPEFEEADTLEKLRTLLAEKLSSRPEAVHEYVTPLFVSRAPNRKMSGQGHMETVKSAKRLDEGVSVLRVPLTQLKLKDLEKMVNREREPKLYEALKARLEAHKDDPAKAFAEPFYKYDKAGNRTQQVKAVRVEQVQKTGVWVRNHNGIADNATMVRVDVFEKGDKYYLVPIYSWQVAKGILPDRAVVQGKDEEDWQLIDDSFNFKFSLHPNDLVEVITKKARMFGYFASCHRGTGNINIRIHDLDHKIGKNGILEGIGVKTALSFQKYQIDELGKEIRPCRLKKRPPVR

Nme1Cas9 [2] = molecular target: T1, Nme1Cas9; assay: filter binding; no AcrIIC2Nme; Filter binding: 20 mM Tris pH 7.5, 100 mM KCl, 5 mM MgCl2, 1 mM DTT, 5% glycerol, 0.01% Igepal, 10 ug/mL yeast tRNA, 10 ug/mL BSA, 37 C, 30 min; ITC: 300 mM NaCl, 20 mM Tris pH 7.5, 20 C; gel filtration: 300 mM NaCl, 20 mM Tris pH 7.5; pull-down: 50 mM Tris pH 7.5, 200 mM NaCl, 5% glycerol, 20 mM imidazole; settings: protein: recombinant; label: radiolabeled; hairpin

B1: full length sgRNA (filter binding) (structured_RNA)
RNA: GGUCUGUAAGCGGAUGCCAUAUGGUUGUAGCUCCCUUUCUCGAAAGAGAACCGUUGCUACAAUAAGGCCGUCUGAAAAGAUGUGCCGCAACGCUCUGCCCCUUAAAGCUUCUGCUUUAACGGGCUU
Kd (Nme1Cas9 [1]): 0.24 ± 0.14 nM

B2: repeat:anti-repeat (cr:tracr) (structured_RNA)
RNA: GGUUGUAGCUCCCUUUCUCGAAAGAGAACCGUUGCUACAAUAA
binding result (Nme1Cas9 [2]): binds

— paper PMC6594998, “Inhibition of CRISPR-Cas9 ribonucleoprotein complex assembly by anti-CRISPR AcrIIC2”
